Source: patent US20040224389A1

Molecular target: human Fas (CD95/APO-1) (human) (UniProt P25445)
Experiment: flow cytometric immunofluorescence on 293 cells, 2 ug/ml antibody compared with FITC-conjugated isotype control DAK-G01

Chain of UniProt P25445 (P25445 26-335 limits assumed): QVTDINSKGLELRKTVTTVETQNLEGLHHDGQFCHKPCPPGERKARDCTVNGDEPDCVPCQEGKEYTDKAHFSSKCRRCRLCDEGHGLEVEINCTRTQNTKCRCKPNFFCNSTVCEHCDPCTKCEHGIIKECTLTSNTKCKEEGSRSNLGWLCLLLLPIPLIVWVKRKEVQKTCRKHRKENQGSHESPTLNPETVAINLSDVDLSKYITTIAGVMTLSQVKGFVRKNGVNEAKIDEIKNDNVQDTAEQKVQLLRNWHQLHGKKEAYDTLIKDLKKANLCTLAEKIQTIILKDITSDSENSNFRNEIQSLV

mean Fas fluorescence, fold over nonspecific fluorescence (isotype control): 4.9 fold
Substance: FITC-conjugated mouse IgG1 anti-human Fas receptor (clone DX2, Pharmingen) (antibody)
